Source: patent publication US20030186281A1, “Modified tetracycline repressor protein compositions and methods of use” (priority 2001, published 2003)
Residue numbers refer to the chain shown, from its start. Names and notes keep the numbering of the source.

B1: TetRrev96/99-16: revTetR(BD) G96P V99Y (protein)
chain: MSRLDKSKVINSALELLNEVGIEGLTTRKLAQKLGVEQPTLYWHVKNKRALLDALAVEILARHHDYSLPAAGESWQSFLRNNAMSFRRALLRYRDPAKYHLGTRPDEKQYDTVETQLRFMTENGFSLRDGLYAISAVSHFTLGAVLEQQEHTAALTDRPAAPDENLPPLLREALQIMDSDDGEQAFLHGLESLIRGFEVQLTALLQIV
modifications: Modified tetracycline repressor
notes: revTetR(BD) G96P V99Y
B2: TetRrev96/99-20: revTetR(BD) G96S V99K (protein)
chain: B1 chain with P96S, Y99K
modifications: Modified tetracycline repressor
notes: revTetR(BD) G96S V99K
B3: TetRrevAtc4-24: revTetR(BD) A56P V57A E58Q H63Q (protein)
chain: B1 chain with A56P, V57A, E58Q, H63Q, P96G, Y99V
modifications: Modified tetracycline repressor
notes: revTetR(BD) A56P V57A E58Q H63Q
B4: TetRrevAtc4-53: revTetR(BD) D53F L55M I59S H63Q (protein)
chain: B1 chain with D53F, L55M, I59S, H63Q, P96G, Y99V
modifications: Modified tetracycline repressor
notes: revTetR(BD) D53F L55M I59S H63Q
B5: TetRrev96/99-17: revTetR(BD) G96T V99K (protein)
chain: B1 chain with P96T, Y99K
modifications: Modified tetracycline repressor
notes: revTetR(BD) G96T V99K
B6: TetRrevAtc4-28: revTetR(BD) V57V E58K L60V R62G (protein)
chain: B1 chain with E58K, L60V, R62G, P96G, Y99V
modifications: Modified tetracycline repressor
notes: revTetR(BD) V57V E58K L60V R62G
B7: TetRrevAtc4-47: revTetR(BD) L51L E58A I59N H63Y (protein)
chain: B1 chain with E58A, I59N, A61E, H63Y, H64N, P96G, Y99V
modifications: Modified tetracycline repressor
notes: revTetR(BD) L51L E58A I59N H63Y
B8: TetRrevAtc4-70: revTetR(BD) D53A A61P (protein)
chain: B1 chain with D53A, A61P, P96G, Y99V
modifications: Modified tetracycline repressor
notes: revTetR(BD) D53A A61P
B9: TetRrevAtc4-7: revTetR(BD) I59R L55L A61E H64N (protein)
chain: B1 chain with I59R, A61E, H64N, P96G, Y99V
modifications: Modified tetracycline repressor
notes: revTetR(BD) I59R L55L A61E H64N
B10: TetRrevAtc4-4: revTetR(BD) I59S R62S (protein)
chain: B1 chain with I59S, R62S, P96G, Y99V
modifications: Modified tetracycline repressor
notes: revTetR(BD) I59S R62S
B11: TetRrevAtc4-5: revTetR(BD) I59F A61S H64Q A97T (protein)
chain: B1 chain with I59F, A61S, H64Q, P96G, A97T, Y99V
modifications: Modified tetracycline repressor
notes: revTetR(BD) I59F A61S H64Q A97T
B12: TetRrevAtc4-67: revTetR(BD) K48K D53Y A56G E58G (protein)
chain: B1 chain with D53Y, A56G, E58G, P96G, Y99V
modifications: Modified tetracycline repressor
notes: revTetR(BD) K48K D53Y A56G E58G
B13: TetRrevAtc4-20: revTetR(BD) V57V E58K L60V A61T R62G (protein)
chain: B1 chain with E58K, L60V, A61T, R62G, P96G, Y99V
modifications: Modified tetracycline repressor
notes: revTetR(BD) V57V E58K L60V A61T R62G
B14: TetRrev96P: revTetR(BD) G96P (protein)
chain: B1 chain with Y99V
modifications: Modified tetracycline repressor
notes: revTetR(BD) G96P
B15: TetRrevAtc4-43: revTetR(BD) L52V A56V V57L I59T A61S (protein)
chain: B1 chain with L52V, A56V, V57L, I59T, A61S, P96G, Y99V
modifications: Modified tetracycline repressor
notes: revTetR(BD) L52V A56V V57L I59T A61S
B16: TetRrev96/99-19: revTetR(BD) G96R V99S (protein)
chain: B1 chain with P96R, Y99S
modifications: Modified tetracycline repressor
notes: revTetR(BD) G96R V99S
B17: TetRrevAtc4-23: revTetR(BD) A50D L51V L52Q A54A L55L A61S (protein)
chain: B1 chain with A50D, L51V, L52Q, A61S, P96G, Y99V
modifications: Modified tetracycline repressor
notes: revTetR(BD) A50D L51V L52Q A54A L55L A61S
B18: TetRrevAtc4-71: revTetR(BD) D53T L55M 56P A61S (protein)
chain: B1 chain with D53T, L55M, A56P, A61S, P96G, Y99V
modifications: Modified tetracycline repressor
notes: revTetR(BD) D53T L55M 56P A61S
B19: TetRrevAtc4-61: revTetR(BD) L51L A56V I59H R62L (protein)
chain: B1 chain with A56V, I59H, R62L, P96G, Y99V
modifications: Modified tetracycline repressor
notes: revTetR(BD) L51L A56V I59H R62L
B20: TetRrevAtc4-21: revTetR(BD) K6K D53F L55L V57L I59S A61S (protein)
chain: B1 chain with D53F, V57L, I59S, A61S, P96G, Y99V
modifications: Modified tetracycline repressor
notes: revTetR(BD) K6K D53F L55L V57L I59S A61S
B21: TetRrevAtc4-31: revTetR(BD) A50S D53Y A56G V57I H63Q (protein)
chain: B1 chain with A50S, D53Y, A54G, A56G, V57I, H63Q, P96G, Y99V
modifications: Modified tetracycline repressor
notes: revTetR(BD) A50S D53Y A56G V57I H63Q
B22: TetRrevAtc4-25: revTetR(BD) K48K V57L E58V I59T L60F R62S (protein)
chain: B1 chain with V57L, E58V, I59T, L60F, R62S, P96G, Y99V
modifications: Modified tetracycline repressor
notes: revTetR(BD) K48K V57L E58V I59T L60F R62S
B23: TetRrevAtc4-6: revTetR(BD) D53Y L55L A56P R62L (protein)
chain: B1 chain with D53Y, A56P, R62L, P96G, Y99V
modifications: Modified tetracycline repressor
notes: revTetR(BD) D53Y L55L A56P R62L
B24: TetRrev96/99-18: revTetR(BD) G96T V99P (protein)
chain: B1 chain with P96T, Y99P
modifications: Modified tetracycline repressor
notes: revTetR(BD) G96T V99P
B25: TetRrevAtc4-22: revTetR(BD) R49H A56P V57L L60M (protein)
chain: B1 chain with R49H, A56P, V57L, L60M, P96G, Y99V
modifications: Modified tetracycline repressor
notes: revTetR(BD) R49H A56P V57L L60M
B26: TetRrevAtc4-52: revTetR(BD) D53F A54T L55M I59S H63Q (protein)
chain: B1 chain with D53F, A54T, L55M, I59S, H63Q, P96G, Y99V
modifications: Modified tetracycline repressor
notes: revTetR(BD) D53F A54T L55M I59S H63Q
B27: TetRrevAtc4-40: revTetR(BD) A56P L60L A61G R62R (protein)
chain: B1 chain with A56P, A61G, P96G, Y99V
modifications: Modified tetracycline repressor
notes: revTetR(BD) A56P L60L A61G R62R
B28: TetRrevAtc4-48: revTetR(BD) D53N A54S L55L A56P V57V A61A R62L (protein)
chain: B1 chain with D53N, A54S, A56P, V57P, R62L, P96G, Y99V
modifications: Modified tetracycline repressor
notes: revTetR(BD) D53N A54S L55L A56P V57V A61A R62L

These molecules were tested on tet operator sequence (assay: β-galactosidase activity of a tetracycline-regulated promoter in transformed E. coli with revTetR, in the presence and absence of anhydrotetracycline (atc)). Settings: RevTetR isolate cultured in the absence of anhydrotetracycline (ATC).
Format: cell-based, Escherichia coli
In short: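 TetR(BD) chimera mutants (TetR(B) residues 1–50, TetR(D) 51–208) expressed in E. coli regulating a tet operator-controlled lacZ. β-Galactosidase measured in Miller units at 28 °C and 37 °C with and without anhydrotetracycline; reported as percent of maximal expression without Tet repressor.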

| Molecule | β-Galactosidase Activity, Cultured Without ATC |
| --- | --- |
| B1 | 93.7512 |
| B2 | 81.8583 |
| B3 | 61.649 |
| B4 | 87.055 |
| B5 | 92.9198 |
| B6 | 85.141 |
| B7 | 83.987 |
| B8 | 16.119 |
| B9 | 84.416 |
| B10 | 70.5665 |
| B11 | 98.272 |
| B12 | 61.815 |
| B13 | 78.478 |
| B14 | 24.1109 |
| B15 | 99.61 |
| B16 | 95.188 |
| B17 | 105.95 |
| B18 | 70.197 |
| B19 | 88.785 |
| B20 | 104.757 |
| B21 | 65.039 |
| B22 | 98.629 |
| B23 | 108.478 |
| B24 | 85.7142 |
| B25 | 80.2859 |
| B26 | 105.367 |
| B27 | 56.743 |
| B28 | 110.179 |

Same assay, conditions: RevTetR isolate cultured in the presence of anhydrotetracycline (ATC)

| Molecule | β-Galactosidase Activity, Cultured With ATC |
| --- | --- |
| B1 | 9.8301 |
| B2 | 3.0074 |
| B3 | 13.63 |
| B4 | 6.945 |
| B5 | 8.4558 |
| B6 | 4.217 |
| B7 | 13.969 |
| B8 | 11.125 |
| B9 | 27.649 |
| B10 | 2.5363 |
| B11 | 12.552 |
| B12 | 12.616 |
| B13 | 8.048 |
| B14 | 4.1882 |
| B15 | 13.878 |
| B16 | 7.4009 |
| B17 | 21.606 |
| B18 | 7.372 |
| B19 | 23.831 |
| B20 | 16.831 |
| B21 | 2.181 |
| B22 | 12.116 |
| B23 | 23.873 |
| B24 | 7.5138 |
| B25 | 3.7584 |
| B26 | 5.575 |
| B27 | 14.428 |
| B28 | 16.146 |
